Data set [1] has as its system ZF11xHunt-Kox-1 (synthetic). Description: cell_activity.
The subject of data set [2] is ZF6xHunt-Kox-1 (synthetic). Description: cell_activity. Particulars: htt mRNA repression up to 2.5-fold (60%); protein up to 2-fold; STHdh Q111 cells, 20 days.

Chain of ZF11xHunt-Kox-1 (synthetic) (chain, as listed by the source): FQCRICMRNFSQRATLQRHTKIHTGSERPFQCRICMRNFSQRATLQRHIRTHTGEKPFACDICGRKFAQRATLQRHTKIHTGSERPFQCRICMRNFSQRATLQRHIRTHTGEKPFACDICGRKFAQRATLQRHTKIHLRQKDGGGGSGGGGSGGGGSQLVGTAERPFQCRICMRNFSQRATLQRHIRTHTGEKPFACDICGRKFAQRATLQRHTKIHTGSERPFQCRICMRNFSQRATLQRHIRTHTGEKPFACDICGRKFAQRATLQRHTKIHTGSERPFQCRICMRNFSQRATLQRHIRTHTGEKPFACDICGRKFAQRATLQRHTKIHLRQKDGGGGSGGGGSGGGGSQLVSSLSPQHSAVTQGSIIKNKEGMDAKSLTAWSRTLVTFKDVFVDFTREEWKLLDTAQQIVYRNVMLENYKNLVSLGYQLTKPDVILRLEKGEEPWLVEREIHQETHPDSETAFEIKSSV
Chain of ZF6xHunt-Kox-1 (synthetic) (chain, as listed by the source): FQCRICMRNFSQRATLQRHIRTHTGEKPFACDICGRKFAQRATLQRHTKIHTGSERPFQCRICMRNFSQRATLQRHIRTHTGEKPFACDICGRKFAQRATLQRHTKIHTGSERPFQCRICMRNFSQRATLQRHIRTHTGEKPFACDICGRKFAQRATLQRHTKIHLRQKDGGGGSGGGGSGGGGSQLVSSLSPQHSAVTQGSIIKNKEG

As to mutant htt Q111 chromosomal locus, the activity in data set [1] (almost 80% mRNA reduction and 95% protein reduction, STHdh Q111 cells, 20 days) was 80 % reduction; in data set [2], less than 2.5 fold.

Regarding R6/2 mutant htt transgene, the activity in data set [1] (mean mutant htt mRNA reduction in R6/2 striatum at 6 weeks, AAV2/1 delivery) is more than 45 % reduction.

Source of the values: patent US20160200781.
